Publication PMC7530659, “Oxepinamide F biosynthesis involves enzymatic D-aminoacyl epimerization, 3H-oxepin formation, and hydroxylation induced double bond migration” (Nature Communications, 2020)

How the values were obtained:
[1] = system: T1, CC[C@H](C)[C@@H]1NC(=O)[C@@H](Cc2ccccc2)n2c1nc1c(c2=O)C=CC=CO1; assay: purified protein; format: biochemical, Aspergillus ustus; conditions: FAD; NADPH
T1 construct: recombinant N-terminally His6-tagged OpaC from cDNA, 457 amino acids, lacking residues 248 to 252 of KIA75456

[2] = substrate: CC[C@H](C)C1=C2N=C3OC=CC=C[C@]3(O)C(=O)N2[C@H](Cc2ccccc2)C(=O)N1; assay: HPLC enzyme assay with purified OpaE, Michaelis-Menten kinetics (KM); D2O labeling by LC-MS; format: biochemical, Aspergillus ustus

OpaC (Aspergillus ustus; DEL248-252)
Km [1]: 430 ± 40 µM

B1: OpaE (Aspergillus ustus) (protein)
chain: MGPLRVFTDNKVKVMLLNPIGGAGFNDFVVETVLNHKDPSTHVTITSLANRIGGNQTLAYPSIRPLLYGEMIRVCLQARKENYDVLIINCFGDPMVDELQQIAGDDMVILGARQVAVQTASKISSKYAVLLPYDMKSSPDPLHQRVVADTRTAVAHPVVDMAFNDDLTPMDGESLGERLATQGKLAIKENGAEVLVLGCTAMVGCWQGLMRAVGVPVIDPTVAALRAAGKAGRLKRELVGGASTKRSGTFPTEKELKMIAESEPSYPFSGRIEI
notes: recombinant His6-tagged OpaE
Km [2]: 1410 ± 50 µM
